# According to article PMC6197822:
# Biological target: Thr315Ala variant of the catalytic domain of ICR^Mc (ICR^Mccat^Thr315Ala) (Moraxella catarrhalis strain BC1)
# Assay: crystal structure
substance,measurement,value
Thr315Ala variant of the catalytic domain of ICR^Mc (ICR^Mccat^Thr315Ala) (domain or fragment),stoichiometry N,2
